From article PMC5551578 (The Journal of Experimental Medicine, 2017)
Substitutions are numbered along the chain they refer to.

B1: H1-Ab8 (antibody, V domains shown)
VH: EVQLVQSGAEVKKPGASVKVSCKASGYTFADYYIHWVRQAPGQGLEWMGWINPNSGDTNYAQKFQGRVTMTRDTSISTGDMELSRLRSDDTAVYYCARANRGGYFAWAFFDFWGQGTLVTVSS
VL: EIVLTQSPGTLSLSPGERATLSCRASQSVSSRNLAWYQQKPGQAPRLLIYGASSRATGIPDRFSGSGSGTDFILSISRLEPEDFAVYYCQQYGSSPLTFGGGTKVEIK
B2: H1-Ab16 (antibody, V domains shown)
VH: EVQLVESGAEVKKPGSSVKVSCTASGGAFNSHTISWLRQTPGQGLEWMGRIIPILGMANYAQKFHGRVTITADISTNTAYMELSSLRSEDTAVYSCAGGTSRWFGDVEYWGQGSLVTVSS
VL: EIVLTQSPLSLPVTLGQPASISCRSSQSLVFSDGNTYLSWFHQRPGQAPRRLIYKVSDRDSGVPDRFSGSGSGTDFTLKISRVEAEDVGVYYCMQGSHWPPSFGPGTKVEIK
B3: H1-Ab18 (antibody, V domains shown)
VH: EVQLVESGGGLLKPGGSLRLSCAASGFTFNNAWMSWVRQPPGKGLEWVGRIKSESDDETPDYAAPVKGRFDISRDDSKNMLYLQMSSLKTEDTAVYYCATDHSSHYYDRPDYWGQGTLVTVSS
VL: QSVLTQSPSASASLGASVKLTCILSSGHSDYAIAWHQQQPEKGPRYLMKLNIDGSHSKGDGIPDRFSGSTSGAERYLTISSLQSEDEADYYCQTWDTGIHVFGGGTRLTVL
B4: H1-Ab33 (antibody, V domains shown)
VH: EVQLVESGGGLVQPGGSLRLSCAASGFTFSSYAMSWVRQAPGKGLEWVSGINAGGGSTFYADSVKGRFTISRGNSKNTLYLQMHSLRAEDTAIYYCAKDQGNAIFGLVIPSYYFDYWGQGTLVTVSS
VL: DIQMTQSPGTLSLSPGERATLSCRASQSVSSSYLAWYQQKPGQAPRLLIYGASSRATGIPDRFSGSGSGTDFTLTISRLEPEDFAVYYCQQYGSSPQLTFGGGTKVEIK
B5: H1-Ab37 (antibody, V domains shown)
VH: B4 VH with E1L, G73D
VL: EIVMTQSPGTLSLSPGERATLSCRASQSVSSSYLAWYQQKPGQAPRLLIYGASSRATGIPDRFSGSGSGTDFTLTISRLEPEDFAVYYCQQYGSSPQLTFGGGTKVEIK
B6: H1-Ab38 (antibody, V domains shown)
VH: EVQLVESGGGVVQPGRSLRLSCAASGFTFSSNAMHWVRQAPGKGLEWVAVISSDGSSKYYADSVKGRFTISRDNSKNTLFLQMNSLRADDTAIYYCARRYDGFDYWGQGSLVTVSS
VL: QSVLTQPASVSGSPGQSITISCTGTSSDVGSYNLVSWYQQHPGKAPKLMIYEVNKRPSGVSNRFSGSKSGNTASLTISGLQAEDEADYHCCSYAGSYTYVFGGGTKLTVL
B7: H1-Ab26 (antibody, V domains shown)
VH: EVQLVQSGGGLVQPGSSLRLSCAASGFTFSNFAMSWVRQAPGKGLEWVSTINAGSGSKDYANSVKGRFTISRDNTKNTLYLQMKSLRAEDTAVYYCAKDTGHTIFGVVRPYYNGMDVWGQGTTVTVSS
VL: DNQMTQSPLSLPVTLGQPASISCRSSQSLVYSDGNTYLNWFQQRPGQSPRRLIYKVSNRDSGVPDRFSGSGSGTDFTLKISRVEAEDVGVYYCMQGTHPYTFGQGTKVEIK
B8: H1-Ab27 (antibody, V domains shown)
VH: B7 VH
VL: EIVMTQSPGTLSLSPGERATLSCRASQSVSSSYLAWYQQKPGQAPRLLIYGASSRATGIPDRFSGSGSGTDFTLTITRLEPEDFAVYYCQQYGGSPMYTFGQGTKVEIK
B9: H1-Ab15 (antibody, V domains shown)
VH: EVQLVESGAEVKKPGSSVTVSCKASGNIFNSYTVSWVRQVPGQGLEWVARVIPTIGMSNYAPKLQGRVTVTADRSTNTAYMEVTSLRSEDTAVYYCATGPSYYYDANGSPTDYWGQGTLVTVSS
VL: DIQMTQSSATLSVSPGETATLSCRASQSVSSHLVWYQQKPGQAPRLIIYGASTRATGIPVRFSGSRSGTEFTLTISSLQSEDFAIYYCQQYNNWPWTFGQGTKVEIK
B10: H1-Ab51 (antibody, V domains shown)
VH: EVQLVESGPGLVKPSETLSLTCTVSGGSISSNTYYWGWIRQPPGKGLEWIETIYYSGSTYYNPSLKSRVTISVDTSKNQFSLKLSSVTAADSAVYYCARSYCGGGCNFDAFDIWGQGTVVTVSS
VL: QSVLTQPASVSGSPGQSITISCTGSSSDVGGYNYVSWYQQHPGKAPKLMIFDVSNRPSGVSNRFSGSKSGNTASLTISGLQAEDEADYYCSSYTSNITLVFGGGTKLTVL
B11: H1-Ab23 (antibody, V domains shown)
VH: EVQLVESGGGLVKPGGSLRLSCAASGFTFSSYSMHWVRQAPGKGLEWISSISSTGNYIYYADSVKGRFTISRDNARNSLYAQLNSLRAEDTAVYYCATGVTSSYGGHPGYFDSWGQGTLVTVSS
VL: DIRMTQSPSSLSASVGDRVTITCQASQDISKYLNWYQQKPGKAPKVLIYDASNLETGVPSRFSGSRSGTDFTFTISRLQPEDIGTYYCQQYDDPFLTFGGGTKVEIK
B12: H1-Ab1 (antibody, V domains shown)
VH: EVQLVQSGAEVKKPGASVKVSCKASGYIFTSYGISWVRLAPGQGLEWMGWISGYNSNTNYAQKFQGRVTVTADTSTSTAYMELRSLRSDDTAVYYCARDRAHILTGYHFDCWGQGTLVTVSS
VL: DIQMTQSPLSLPVTLGQPASISCRSSQSLVYIDGNTYLNWFQQRPGQSPRRLIYKVSNRDSGVPDRFSGSGSGTDFTLKISSVEAEDVGVYYCMQGTHWPPYTFGQGTKVEIK
B13: H1-Ab2 (antibody, V domains shown)
VH: B12 VH with K13R, I28T, L39Q, G53A, S56G, F64L, T69I, V70M, A72T, C111Y
VL: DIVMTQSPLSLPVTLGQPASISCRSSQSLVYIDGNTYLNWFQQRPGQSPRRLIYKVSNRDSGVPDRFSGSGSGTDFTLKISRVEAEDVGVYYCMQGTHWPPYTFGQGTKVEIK
B14: H1-Ab3 (antibody, V domains shown)
VH: B12 VH with Q6E, K13R, I28T, L39Q, G53A, S56G, F64L, T69I, V70M, A72T
VL: DIVMTQSPGTLSLSPGERATLSCGASQSVTSSYLAWYQQKPGQAPRLLIYDAPSRATGIPDRFSGSGSGTDFTLTISRLEPEDFAVYYCQQYGSSHVITFGQGTDWRLN
B15: H1-Ab11 (antibody, V domains shown)
VH: QVQLVQSGAEVKKPGSSVKVSCKASGVTFDTYAFSWVRQAPGQGLEWMGGISPIFTTTNYAQTFQGRVTITADKSTSTAYMELSSLISEDTAVYYCAKGGPTTGTPYYVFGLDVWGQGTMVTVSF
VL: DIVMTQSPLSSPVTLGQPASISCRSSQSLVHSDGNTYLSWLHQRPGQPPRLLIYKISNRFSGVPDRFTGSGAGTDFTLKISRVEAEDVGVYYCMQATQFQTFGQGTKVEIK
B16: H1-Ab4 (antibody, V domains shown)
VH: EVQLVESGGALRKPGASVRVSCRSSGYRFTSNGISWVRQAPGRGLEWMGWISANSGNTFYAQKFQGRVTMTTDTSASTAYVELRRLRPDDTAMYYCARDVHYRFDSWGQGTLVTVSS
VL: QSVLTQPPSASGSPGQSVAISCTGSSSDVGGYDWVSWYQQYPGKGPKLIIYEVNKRPPGVPDRFSGSKSGNTASLTVSGLQTEDEADYYCSSYAGGSRVFGGGTKLTVL
B17: H1-Ab9 (antibody, V domains shown)
VH: EVQLVESGAEVKKPGAPVKVSCKASGYTFTRYYIHWVRQAPGQGLEWMGWINPDSGDTKCAQRFQGRVTMTRDTSVSTAYMELRRLGSDDTALYYCARIQLRSDGFDLWGQGTLVTVSS
VL: QSALTQPASVSGSPGQSITISCTGTSSDIGSYKFVSWYQQHPGKAPKVMIYEVTQRPSGVSNRFSGSKSGNTASLTISGLQAEDEADYYCCSYAGSSFWVFGGGTTLTVP

The binders below were run against H1N1 HA (A/California/04/2009) (Influenza A virus A/California/04/2009 …, UniProt C3W5S1, strain).
B1: binds.
B2: binds.
B3: binds.
B4: binds.
B5: binds.
B6: binds.
B7: binds.
B8: binds.
B9: binds.
B10: binds.
B11: binds.
B12: binds.
B13: binds.
B14: binds.
B15: binds.
B16: binds.
B17: binds.
